Measurements published in paper PMC4208761, “Molecular Insights into the Interaction between Plasmodium falciparum Apical Membrane Antigen 1 and an Invasion-Inhibitory Peptide” (PLoS ONE, 2014).
“Also recorded” adds a separate entry of the source. No end group written: not given here.

Experiments:
[1] = molecular target: T1, 3D7 PfAMA1_104–442 (Plasmodium falciparum, UniProt Q7KQK5); assay: SPR analysis of peptides binding to immobilized AMA1 (Biacore T200); conditions: 25°C; for Equilibrium dissociation constant K D, truncated R1: SPR, AMA1 immobilized on CM5 chip, HBS-EP running buffer pH 7.4, no DMSO, kinetic 1:1 fit (native R1) or steady-state affinity fit, peptide 10 nM to 10 µM, No binding = no binding event up to 10 µM peptide; for fold reduction in affinity for AMA1 relative to R1_5–16: SPR alanine scan, 1% DMSO in HBS-EP
T1 construct: His6 (TEV-cleavable); made in house
Experimental: A Biacore T200 biosensor instrument was used to measure the affinity of the interaction of peptides with 3D7 PfAMA1_104–442. AMA1 was immobilized onto a CM5 chip as described. Surface plasmon resonance (SPR) experiments were performed at 25°C using HBS-EP (10 mM HEPES, 150 mM NaCl, 3.4 mM EDTA, and 0.05% surfactant P20, pH 7.4) as the running buffer either with (alanine scanning mutagenesis study) or without (truncation study) 1% DMSO. All peptide samples were prepared in the appropriate running buffer. To generate the peptide binding data, peptide at concentrations ranging from 10 nM to 10 µM was injected over immobilized AMA1 at a constant flow rate of 60 µL/min for 1.5 min; peptide dissociation was monitored by flowing running buffer at 60 µL/min for 5 min. The surface was regenerated after each cycle by injecting glycine/HCl at pH 2.0. Sensorgrams were first zeroed on the y-axis and then x-aligned at the start of the injection. Bulk refractive index changes were eliminated by subtracting the reference flow cell responses. For kinetic analysis, ka and kd were determined from the processed data sets by globally fitting to a 1∶1 binding model. For rapidly associating/dissociating truncated peptides, K D was determined by fitting to a steady-state affinity model using a fixed Rmax that was calculated based on the response of R1_5–16.

[2] = molecular target: T2, Domain I+II of 3D7 PfAMA1 (residue 104-442), immobilised for SPR (Plasmodium falciparum 3D7, UniProt Q7KQK5 104-442); assay: SPR; conditions: both partners purified
T2 sequence (looked up): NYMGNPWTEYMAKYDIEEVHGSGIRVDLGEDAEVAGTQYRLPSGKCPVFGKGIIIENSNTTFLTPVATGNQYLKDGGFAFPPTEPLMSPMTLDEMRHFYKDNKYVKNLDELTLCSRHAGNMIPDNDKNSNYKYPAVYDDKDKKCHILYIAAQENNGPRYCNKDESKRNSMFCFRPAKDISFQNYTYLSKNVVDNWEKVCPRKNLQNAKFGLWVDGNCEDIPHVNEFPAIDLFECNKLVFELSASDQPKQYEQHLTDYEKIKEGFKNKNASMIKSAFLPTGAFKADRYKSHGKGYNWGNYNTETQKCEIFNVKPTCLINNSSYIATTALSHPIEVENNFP

[3] = molecular target: T2, Domain I+II of 3D7 PfAMA1 (residue …); assay: SPR; conditions: both partners purified; remark: listed apart in the source
[4] = molecular target: T3, Fractionally deuterated 3D7 PfAMA1 (residue 104-442), His6 tag cleaved, for NMR (Plasmodium falciparum 3D7, UniProt Q7KQK5 104-442, randomly fractionally deuterated (f-2H)); assay: NMR titration; conditions: both partners purified
T3 sequence (looked up): T2 sequence (looked up)

[5] = molecular target: T2, Domain I+II of 3D7 PfAMA1 (residue …); assay: SPR; conditions: both partners purified; remark: listed apart in the source

With “R1_11–20: truncated R1 analogue, N-terminally acetylated and C-terminally amidated (Ac-KFGSRMHILK-NH2)” the “Equilibrium dissociation constant K D, truncated R1” value [1] was “No binding ^b”.

Ac-EFLPLFSKFGSRMH-NH2 [R1_4–17] was tested, and the “reduction of binding affinity relative to native R1” value ([1]; SPR truncation study, no DMSO) was about 10 fold.

With Ac-FLPLFSKFGARM-NH2 [R1_5–16 S14A] the “fold reduction in affinity for AMA1 relative to R1_5–16” value [1] was “less than 3 fold”.

With Ac-FLPLFSKFGSRM-NH2 [R1_5–16] the “reduction of binding affinity relative to native R1” value ([1]; SPR truncation study, no DMSO) was about 10 fold.

With “R1_1–11: truncated R1 analogue, N-terminally acetylated and C-terminally amidated (Ac-VFAEFLPLFSK-NH2)” the “Equilibrium dissociation constant K D, truncated R1” value [1] was “no detectable binding; also recorded: No binding ^b”.

In the case of Ac-FLPLFSAFGSRM-NH2 [R1_5–16 K11A], the “fold reduction in affinity for AMA1 relative to R1_5–16” value [1] is reported as 15 fold.

Ac-FLPLFSKAGSRM-NH2 [R1_5–16 F12A] was tested, and the “fold reduction in affinity for AMA1 relative to R1_5–16” value [1] was 48 fold.

With Ac-FLALFSKFGSRM-NH2 [R1_5–16 P7A] the “fold reduction in affinity for AMA1 relative to R1_5–16” value [1] was 35 fold.

With Ac-FAPLFSKFGSRM-NH2 [R1_5–16 L6A] the “fold reduction in affinity for AMA1 relative to R1_5–16” value [1] was 33 fold.

In the case of Ac-FLPLFSKFGSRA-NH2 [R1_5–16 M16A], the “fold reduction in affinity for AMA1 relative to R1_5–16” value [1] is reported as “less than 3 fold”.

In the case of Ac-FLPLFAKFGSRM-NH2 [R1_5–16 S10A], the “fold reduction in affinity for AMA1 relative to R1_5–16” value [1] is reported as “less than 3 fold”.

For “R1_5–14: 10-residue truncated R1 peptide, Arg15 deleted (Ac-FLPLFSKFGS-NH2)”, the “Equilibrium dissociation constant K D, truncated R1” value [1] was “abolished measurable binding; also recorded: No binding ^b”.

In the case of Ac-FLPLFSKFGSR-NH2 [R1_5–15], the “further reduction in K D (affinity) on truncation of R1_5–16 to the 11-residue peptide” value ([1]; SPR truncation study, no DMSO, relative to R1_5–16) is reported as about 5 fold.

With Ac-FLPLFSKFASRM-NH2 [R1_5–16 G13A] the “fold reduction in affinity for AMA1 relative to R1_5–16” value [1] was 21 fold.

With VFAEFLPLFSKFGSRMHILK [Native R1 peptide] the “stoichiometry N” value [2] was 1 and the Kd [3] was 0.11 µM.

Ac-EFLPLFSKFGSRMH-NH2 (source: synthetic peptide (Mimotopes)) [R1_(4-17)] showed a Kd [3] of 0.88 µM.

B1: Recombinant f-2H, u-13C, 15N-labelled R1 peptide (peptide)
peptide: VFAEFLPLFSKFGSRMHILK
modifications: not fully specified
notes: source: E. coli BL21 (DE3), thioredoxin fusion from pET32a, purified (HisTrap, enterokinase cleavage, HiTrap QFF, RP-HPLC)
B1 was tested, and the “stoichiometry N” value [4] was 1.

With Ac-FLPLFSKFGSR-NH2 (source: synthetic peptide (Mimotopes)) [R1_(5-15)] the Kd [3] was 4.6 µM.

Work on Ac-FLPLFSKFGSRM-NH2 (source: synthetic peptide (Mimotopes)) [R1_(5-16)] yielded a Kd [3] of 0.99 µM and a Kd [5] of 1.8 µM.

With Ac-FLPLFSKFASRM-NH2 (source: synthetic peptide (Mimotopes)) [R1_(5-16) G13A] the Kd [5] was 39 µM.

Work on Ac-FLPLFSKFGARM-NH2 (source: synthetic peptide (Mimotopes)) [R1_(5-16) S14A] yielded a Kd [5] of 3.3 µM.

Molecule Ac-FLPLFAKFGSRM-NH2 (source: synthetic peptide (Mimotopes)) [R1_(5-16) S10A] has a Kd [5] of 4.8 µM.

In the case of Ac-FAPLFSKFGSRM-NH2 (source: synthetic peptide (Mimotopes)) [R1_(5-16) L6A], the Kd [5] is reported as 60 µM.

In the case of Ac-FLPLFSKFGSRA-NH2 (source: synthetic peptide (Mimotopes)) [R1_(5-16) M16A], the Kd [5] is reported as 2.7 µM.

B2: R1_(5-16) K11A (peptide)
peptide: Ac-FLPLFSAFGSRM-NH2
notes: also called Lys11Ala mutant; source: synthetic peptide (Mimotopes)
Molecule B2 has a Kd [5] of 27 µM.

Ac-FLPLFSKAGSRM-NH2 (source: synthetic peptide (Mimotopes)) [R1_(5-16) F12A] gave a Kd [5] of 87 µM.

For Ac-FLPLFSKFGSAM-NH2 (source: synthetic peptide (Mimotopes)) [R1_(5-16) R15A], the Kd [5] was over 100 µM.

Ac-FLALFSKFGSRM-NH2 (source: synthetic peptide (Mimotopes)) [R1_(5-16) P7A] showed a Kd [5] of 61 µM.
